# From patent US20090061443
# B1: hDOT1L (human DOT1-like protein) (protein)
# chain: MGEKLELRLKSPVGAEPAVYPWPLPVYDKHHDAAHEIIETIRWVCEEIPDLKLAMENYVLIDYDTKSFESMQRLCDKYNRAIDSIHQLWKGTTQPMKLNTRPSTGLLRHILQQVYNHSVTDPEKLNNYEPFSPEVYGETSFDLVAQMIDEIKMTDDDLFVDLGSGVGQVVLQVAAATNCKHHYGVEKADIPAKYAETMDREFRKWMKWYGKKHAEYTLERGDFLSEEWRERIANTSVIFVNNFAFGPEVDHQLKERFANMKEGGRIVSSKPFAPLNFRINSRNLSDIGTIMRVVELSPLKGSVSWTGKPVSYYLHTIDRTILENYFSSLKNPKLREEQEAARRRQQRESKSNAATPTKGPEGKVAGPADAPMDSGAEEEKAGAATVKKPSPSKARKKKLNKKGRKMAGRKRGRPKKMNTANPERKPKKNQTALDALHAQTVSQTAASSPQDAYRSPHSPFYQLPPSVQRHSPNPLLVAPTPPALQKLLESFKIQYLQFLAYTKTPQYKASLQELLGQEKEKNAQLLGAAQQLLSHCQAQKEEIRRLFQQKLDELGVKALTYNDLIQAQKEISAHNQQLREQSEQLEQDNRALRGQSLQLLKARCEELQLDWATLSLEKLLKEKQALKSQISEKQRHCLELQISIVELEKSQRQQELLQLKSCVPPDDALSLHLRGKGALGRELEPDASRLHLELDCTKFSLPHLSSMSPELSMNGQAAGYELCGVLSRPSSKQNTPQYLASPLDQEVVPCTPSHVGRPRLEKLSGLAAPDYTRLSPAKIVLRRHLSQDHTVPGRPAASELHSRAEHTKENGLPYQSPSVPGSMKLSPQDPRPLSPGALQLAGEKSSEKGLRERAYGSSGELITSLPISIPLSTVQPNKLPVSIPLASVVLPSRAERARSTPSPVLQPRDPSSTLEKQIGANAHGAGSRSLALAPAGFSYAGSVAISGALAGSPASLTPGAEPATLDESSSSGSLFATVGSRSSTPQHPLLLAQPRNSLPASPAHQLSSSPRLGGAAQGPLPEASKGDLPSDSGFSDPESEAKRRIVFTITTGAGSAKQSPSSKHSPLTASARGDCVPSHGQDSRRRGRRKRASAGTPSLSAGVSPKRRALPSVAGLFTQPSGSPLNLNSMVSNINQPLEITAISSPETSLKSSPVPYQDHDQPPVLKKERPLSQTNGAHYSPLTSDEEPGSEDEPSSARIERKIATISLESKSPPKTLENGGGLAGRKPAPAGEPVNSSKWKSTFSPISDIGLAKSADSPLQASSALSQNSLFTFRPALEEPSADAKLAAHPRKGFPGSLSGADGLSPGTNPANGCTFGGGLAADLSLHSFSDGASLPHKGPEAAGLSSPLSFPSQRGKEGSDANPFLSKRQLDGLAGLKGEGSRGKEAGEGGLPLCGPTDKTPLLSGKAAKARDREVDLKNGHNLFISAAAVPPGSLLSGPGLAPAASSAGGAASSAQTHRSFLGPFPPGPQFALGPMSLQANLGSVAGSSVLQSLFSSVPAAAGLVHVSSAATRLTNSHAMGSFSGVAGGTVGGN
# Target: T1, Flag-CALM-AF10 fusion protein (wild-type), Q13492
# T1 chain: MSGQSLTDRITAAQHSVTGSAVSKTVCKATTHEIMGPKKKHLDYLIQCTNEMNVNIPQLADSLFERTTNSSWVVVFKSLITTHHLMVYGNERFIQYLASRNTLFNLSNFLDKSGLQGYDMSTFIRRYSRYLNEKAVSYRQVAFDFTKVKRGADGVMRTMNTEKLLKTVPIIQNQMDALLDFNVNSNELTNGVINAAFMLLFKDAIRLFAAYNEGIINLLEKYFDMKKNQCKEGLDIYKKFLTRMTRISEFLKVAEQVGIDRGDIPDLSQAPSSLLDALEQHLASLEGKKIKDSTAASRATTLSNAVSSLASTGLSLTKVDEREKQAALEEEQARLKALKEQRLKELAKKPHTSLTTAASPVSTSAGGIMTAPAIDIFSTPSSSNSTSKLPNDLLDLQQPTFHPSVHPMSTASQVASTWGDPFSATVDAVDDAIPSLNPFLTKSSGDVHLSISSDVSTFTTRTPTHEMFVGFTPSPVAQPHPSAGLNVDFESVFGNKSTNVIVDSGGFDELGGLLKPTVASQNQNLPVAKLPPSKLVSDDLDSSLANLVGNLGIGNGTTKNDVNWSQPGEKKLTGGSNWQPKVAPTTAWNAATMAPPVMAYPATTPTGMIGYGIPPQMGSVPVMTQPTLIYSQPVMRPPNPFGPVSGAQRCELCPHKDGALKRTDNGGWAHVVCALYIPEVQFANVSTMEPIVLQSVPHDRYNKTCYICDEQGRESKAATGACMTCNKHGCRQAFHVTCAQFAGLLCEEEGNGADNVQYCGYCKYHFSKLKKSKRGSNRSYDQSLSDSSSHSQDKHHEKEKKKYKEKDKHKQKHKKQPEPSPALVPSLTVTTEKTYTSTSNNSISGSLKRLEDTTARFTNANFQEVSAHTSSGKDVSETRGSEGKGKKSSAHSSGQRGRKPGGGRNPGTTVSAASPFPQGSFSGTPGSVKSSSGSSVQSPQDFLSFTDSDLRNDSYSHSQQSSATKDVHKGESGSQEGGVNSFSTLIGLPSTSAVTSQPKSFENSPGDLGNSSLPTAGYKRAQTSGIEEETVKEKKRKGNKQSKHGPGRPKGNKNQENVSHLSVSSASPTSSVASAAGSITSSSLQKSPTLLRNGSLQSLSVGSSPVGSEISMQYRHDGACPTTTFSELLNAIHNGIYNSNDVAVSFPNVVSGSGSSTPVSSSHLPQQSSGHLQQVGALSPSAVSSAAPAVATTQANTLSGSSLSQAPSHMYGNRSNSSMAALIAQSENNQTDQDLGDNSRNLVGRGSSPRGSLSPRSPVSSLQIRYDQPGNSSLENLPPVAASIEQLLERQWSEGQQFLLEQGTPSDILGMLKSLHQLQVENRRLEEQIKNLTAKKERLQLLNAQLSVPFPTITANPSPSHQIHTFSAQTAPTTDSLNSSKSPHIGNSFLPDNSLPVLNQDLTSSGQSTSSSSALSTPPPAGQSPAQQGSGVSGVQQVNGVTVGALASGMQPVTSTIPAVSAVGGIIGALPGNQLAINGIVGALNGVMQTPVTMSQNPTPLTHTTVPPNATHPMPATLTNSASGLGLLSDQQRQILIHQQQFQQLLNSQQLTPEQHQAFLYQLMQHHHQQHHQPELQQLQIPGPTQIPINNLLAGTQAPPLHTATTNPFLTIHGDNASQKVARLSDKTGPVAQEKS
protein,measurement,value
B1,confocal microscopy of co-expressed hDOT1L and CALM-AF10,High resolution analysis of the proteins indicates that they colocalize in the nucleus
